Assay results: patent publication US20060026702A1, “Phosphoinositide 3-kinase mediated inhibition of GPCRs” (DUKE UNIVERSITY, priority 2002, published 2006)

What was measured:
[1] = system: PI3K; assay: βAR associated and endogenous PI3K activity (lipid kinase assay) in HEK-293 cells; conditions: HEAT (4 μg cDNA) co-transfected; 10 μM isoproterenol
[2] = molecular target: T1, AT1AR-GFP (Rattus norvegicus, UniProt P25095); assay: Endocytosis of AT1AR-GFP in live cells by confocal microscopy; format: cell-based; conditions: Angiotensin II 10 μM, 20 min; HEAT co-expressed
T1 construct: expressed in transfected cells; host or cells: HEK 293
T1 sequence (P25095 1-359): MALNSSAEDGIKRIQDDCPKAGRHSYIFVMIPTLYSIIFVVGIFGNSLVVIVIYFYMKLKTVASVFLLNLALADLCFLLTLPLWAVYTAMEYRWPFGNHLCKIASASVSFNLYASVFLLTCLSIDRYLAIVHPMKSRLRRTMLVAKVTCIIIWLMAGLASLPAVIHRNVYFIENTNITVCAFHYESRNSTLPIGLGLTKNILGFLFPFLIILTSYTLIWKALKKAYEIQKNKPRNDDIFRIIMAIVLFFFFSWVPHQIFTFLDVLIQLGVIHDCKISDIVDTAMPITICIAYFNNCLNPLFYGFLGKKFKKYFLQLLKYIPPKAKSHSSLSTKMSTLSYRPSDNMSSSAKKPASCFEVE
Experimental: Disruption of the endogenous βARK1/PI3K interaction by the HEAT protein attenuated AT1AR endocytosis. Endocytosis of AT1AR-GFP in live cells was monitored for 20 min following angiotensin (10 μM) stimulation in the absence or presence of HEAT protein co-expression using confocal microscopy. HEK 293 cells were transfected with 2 μg Angiotensin II Type 1 Receptor, or with 2 pg Angiotensin II Type 1 Receptor and 2 μg HEAT, and stimulated for 20 minutes with 10 μM Angiotensin II. AT1AR internalization was followed in the same cell after agonist stimulation. Prior to agonist, the distribution of AT1AR-GFP was found distinctly at the plasma membrane (FIG. 15, 0 min). […] With time, this was followed by the formation of cytoplasmic aggregates, and then with the complete loss of membrane fluorescence (FIG. 15, 5-20 min). […] In FIG. 15, panels on the left represent cells transfected with the AT1AR-GFP alone (panels show the same cell monitored at 0, 5, 10, 15, and 20 min following stimulation). Panels on the right represent cell transfected with AT1AR-GFP and HEAT (panels show the same cell monitored as above). In the absence of HEAT, agonist caused the internalization AT1ARs as shown by the formation of distinct cytoplasmic aggregates and complete loss of membrane fluorescence.

[3] = system: phospho-PKB; assay: PKB activation (phospho-PKB immunoblot) in HEK 293 cells; format: cell-based; conditions: IGF, carbachol or isoproterenol stimulation; HEAT transfected
[4] = molecular target: T2, βARK1/PI3K interaction (Bos taurus, UniProt P21146); assay: βARK1 associated PI3K activity in HEK 293 cells co-transfected with HEAT or PI3KΔHEAT; format: cell-based
T2 construct: recognizes both full length βARK1 and the βARKct; expressed in transfected cells; host or cells: HEK 293
T2 sequence (P21146 1-689): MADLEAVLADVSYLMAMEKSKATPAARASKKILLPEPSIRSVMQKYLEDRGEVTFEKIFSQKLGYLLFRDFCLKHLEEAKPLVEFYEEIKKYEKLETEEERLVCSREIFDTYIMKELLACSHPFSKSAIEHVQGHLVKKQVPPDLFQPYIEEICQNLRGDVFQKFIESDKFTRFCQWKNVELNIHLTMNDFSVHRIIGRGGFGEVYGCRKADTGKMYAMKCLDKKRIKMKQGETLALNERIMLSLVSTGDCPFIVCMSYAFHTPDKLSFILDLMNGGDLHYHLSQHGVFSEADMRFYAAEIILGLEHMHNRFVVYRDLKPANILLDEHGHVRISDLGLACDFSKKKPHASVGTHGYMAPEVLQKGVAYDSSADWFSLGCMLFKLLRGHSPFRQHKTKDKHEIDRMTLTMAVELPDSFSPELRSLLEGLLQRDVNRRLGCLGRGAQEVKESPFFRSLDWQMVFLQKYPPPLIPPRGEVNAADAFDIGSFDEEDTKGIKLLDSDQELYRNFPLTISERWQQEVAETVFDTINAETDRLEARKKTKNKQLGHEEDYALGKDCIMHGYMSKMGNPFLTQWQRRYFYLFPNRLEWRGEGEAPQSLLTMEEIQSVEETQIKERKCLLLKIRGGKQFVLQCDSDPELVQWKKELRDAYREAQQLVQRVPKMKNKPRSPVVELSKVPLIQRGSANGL
Experimental: The present inventors determined that overexpression of the 197 amino acid HEAT domain of PI3K competed for endogenous PI3K binding to βARK1 in living cells. HEK 293 cells were co-transfected with plasmids containing the βARK1 cDNA (2 μg) and increasing concentrations of the HEAT domain cDNA (ranging from 0 to 6 μg). […] The maximal reduction of βARK1 associated PI3K activity occurred when cells were co-transfected with 4 μg of HEAT cDNA (FIG. 9B). Summary results of n=5 experiments. *, p<0.0005. The data was normalized to βARK1 associated PI3K activity in cells transfected with βARK1 only. Furthermore, FLAG tagged HEAT protein co-immunoprecipitated with βARK1 monoclonal antibodies in the co-transfected HEK 293 cells.
The absence of the HEAT domain in an otherwise intact PI3K molecule affected the association of βARK1 with endogenous PI3K in cells. HEK 293 cells were co-transfected with plasmids containing cDNAs for βARK1 (2 μg), βARK1 plus HEAT (4 μg), and βARK1 plus PI3KΔHEAT (4 μg). Cell lysates were immunoprecipitated with a βARK1 monoclonal antibody and assayed for the associated PI3K activity. Expression of PI3KΔHEAT had no effect on the endogenous βARK1/PI3K interaction, whereas overexpression of HEAT abolished this interaction (FIGS. 9C and 9D). […] The data was normalized to βARK1 associated PI3K activity in cells transfected with βARK1 only.
Cytosolic and membrane fractions were prepared and analyzed for βARK1 associated PI3K activity. […] Membrane fractions were prepared from the HEK293 cells co-transfected with the βARK1 (2 μg), βARK1 and HEAT domain (4 μg) containing plasmids.

B1: HEAT: 197 amino acid HEAT domain of PI3Kγ, FLAG epitope-tagged (SEQ ID NO: 2), overexpressed in cells (protein, listed as Homo sapiens)
chain: MDYKDDDDKHPIALPKHQPTPDDRVRAEMPNQLRKQLEAIIATDTAEDKELLWHFRYESLKHPKAYPKLFSSVKWGQQEIVAKTYQLLARREVWDQSALDVGLTMQLLDCNFSDENVRAIAVQKLESLEDDDVLHYLLQLVQAVKFEPYHDSALARFLLKRGLRNKRIGHFLFWFLRSEIAQSRHYQQRFAVILEAYLRGCGTA
modifications: FLAG tag
[1]
  FLAG-β2AR associated PI3K activity: marked decrease
[2]
  receptor endocytosis (redistribution of AT1AR-GFP): completely inhibited
[3]
  cellular signaling downstream of PI3K (PKB activation): no effect
[4]; 4 μg cDNA co-transfected with βARK1
  endogenous βARK1/PI3K interaction: abolished
[4]; 10 μM isoproterenol 2 min, HEAT 4 μg
  agonist-induced translocation of PI3K to the membrane: effectively abolished
[4]; HEAT cDNA 0 to 6 μg
  βARK1 associated PI3K activity with increasing HEAT cDNA: effectively competed away
